Laboratory results: PMC10907589, “CD8^+ T cell priming that is required for curative intratumorally anchored anti-4-1BB immunotherapy is constrained by Tregs” (Nature Communications, 2024)

B1: ɑ4-1BB-LAIR (ɑ4-1BB antibody clone LOB12.3 fused to the ectodomain of murine LAIR1) (antibody, V domains shown)
VH: DVQLVESGGGLVQPGRSLKLSCAASGFIFSYFDMAWVRQAPTKGLEWVASISPDGSIPYYRDSVKGRFTVSRENAKSSLYLQMDSLRSEDTATYYCARRSYGGYSEIDYWGQGVMVTVSS
VL: DIQMTQSPASLSASLEEIVTITCQASQDIGNWLAWYHQKPGKSPQLLIYGSTSLADGVPSRFSGSSSGSQYSLKISRLQVEDIGIYYCLQAYGAPWTFGGGTKLELK
notes: heavy chain variable region of ɑ4-1BB clone LOB12.3; murine IgG1 heavy chain constant region; flexible (G4S)3 linker, written out from the printed formula; Leukocyte Associated Immunoglobulin Like Receptor 1 (LAIR1), murine, ectodomain; light chain variable region of ɑ4-1BB clone LOB12.3; murine kappa light chain constant region; Chimeric murine IgG1/kappa antibody; LAIR1 is fused to the …
B2: ɑ4-1BB antibody (clone LOB12.3), murine IgG1 chimera (antibody, V domains shown)
VH: B1 VH
VL: B1 VL
notes: heavy chain variable region of ɑ4-1BB clone LOB12.3, as in the heavy chain of m1; murine IgG1 heavy chain constant region; light chain variable region of ɑ4-1BB clone LOB12.3, as the light chain of m1; murine kappa light chain constant region; Chimeric murine IgG1/kappa antibody; light and heavy chain encoded in one cassette with a T2A peptide between them; also called α4-1BB; a4-1BB; source: …

Assays:
murine 4-1BB [1] = biological target: T1, murine 4-1BB (murine, UniProt P20334 24-256); experiment: FACS
T1 chain: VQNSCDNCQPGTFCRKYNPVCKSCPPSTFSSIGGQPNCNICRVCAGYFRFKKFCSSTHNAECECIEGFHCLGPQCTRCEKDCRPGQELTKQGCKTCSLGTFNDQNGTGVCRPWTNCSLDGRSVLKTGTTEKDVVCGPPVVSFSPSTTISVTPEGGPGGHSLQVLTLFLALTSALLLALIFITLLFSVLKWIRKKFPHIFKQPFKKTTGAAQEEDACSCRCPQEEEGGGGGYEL

rat collagen I = rat collagen I (rat, UniProt P02454 152-1207; P02466 86-1125); experiment: ELISA
murine 4-1BB [2] = biological target: T2, murine 4-1BB (Mus musculus, UniProt P20334); experiment: flow cytometry on cells; FreeStyle 293-F cells transiently transfected with murine 4-1BB, titrated with antibody for 3 h at 4 °C; detected with ɑmIgG1-APC; settings: one partner purified
T2 construct: 4-1BB (CD137, TNFRSF9), murine; gene from OriGene cloned into pIRES2 (GFP downstream of an IRES site, not fused); also called CD137; TNFRSF9; source: FreeStyle 293-F, transiently transfected (pIRES2 vector), on cells

Chain of rat collagen I (P02454 152-1207, chain 1 of 2): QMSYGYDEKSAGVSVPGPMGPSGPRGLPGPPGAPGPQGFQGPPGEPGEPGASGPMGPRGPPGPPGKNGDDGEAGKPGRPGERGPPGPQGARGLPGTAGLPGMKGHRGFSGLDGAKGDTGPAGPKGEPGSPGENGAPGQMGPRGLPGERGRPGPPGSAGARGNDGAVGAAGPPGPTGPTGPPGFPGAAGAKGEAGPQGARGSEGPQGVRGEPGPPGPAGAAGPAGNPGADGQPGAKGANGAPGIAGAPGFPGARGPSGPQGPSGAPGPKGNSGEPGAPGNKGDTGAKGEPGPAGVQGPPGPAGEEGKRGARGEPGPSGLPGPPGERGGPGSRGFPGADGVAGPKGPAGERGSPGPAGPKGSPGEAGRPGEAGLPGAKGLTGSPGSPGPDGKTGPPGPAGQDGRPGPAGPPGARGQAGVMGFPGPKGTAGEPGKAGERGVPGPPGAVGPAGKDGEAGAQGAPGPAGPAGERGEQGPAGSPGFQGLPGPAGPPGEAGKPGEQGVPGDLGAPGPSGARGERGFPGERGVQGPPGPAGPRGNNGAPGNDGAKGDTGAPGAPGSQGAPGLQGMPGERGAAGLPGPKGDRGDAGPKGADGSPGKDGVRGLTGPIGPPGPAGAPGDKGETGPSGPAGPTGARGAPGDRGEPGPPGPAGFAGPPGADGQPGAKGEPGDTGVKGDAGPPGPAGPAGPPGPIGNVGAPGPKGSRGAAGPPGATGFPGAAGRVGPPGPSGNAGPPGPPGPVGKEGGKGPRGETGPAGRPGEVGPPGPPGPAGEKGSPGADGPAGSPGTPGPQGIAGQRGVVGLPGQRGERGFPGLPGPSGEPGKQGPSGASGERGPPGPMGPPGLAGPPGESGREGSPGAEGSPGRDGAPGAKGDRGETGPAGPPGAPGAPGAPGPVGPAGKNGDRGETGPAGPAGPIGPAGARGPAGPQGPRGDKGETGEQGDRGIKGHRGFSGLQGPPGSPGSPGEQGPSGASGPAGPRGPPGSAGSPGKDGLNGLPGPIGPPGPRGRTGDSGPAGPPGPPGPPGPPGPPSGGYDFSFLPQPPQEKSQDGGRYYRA
Chain of rat collagen I (P02466 86-1125, chain 2 of 2): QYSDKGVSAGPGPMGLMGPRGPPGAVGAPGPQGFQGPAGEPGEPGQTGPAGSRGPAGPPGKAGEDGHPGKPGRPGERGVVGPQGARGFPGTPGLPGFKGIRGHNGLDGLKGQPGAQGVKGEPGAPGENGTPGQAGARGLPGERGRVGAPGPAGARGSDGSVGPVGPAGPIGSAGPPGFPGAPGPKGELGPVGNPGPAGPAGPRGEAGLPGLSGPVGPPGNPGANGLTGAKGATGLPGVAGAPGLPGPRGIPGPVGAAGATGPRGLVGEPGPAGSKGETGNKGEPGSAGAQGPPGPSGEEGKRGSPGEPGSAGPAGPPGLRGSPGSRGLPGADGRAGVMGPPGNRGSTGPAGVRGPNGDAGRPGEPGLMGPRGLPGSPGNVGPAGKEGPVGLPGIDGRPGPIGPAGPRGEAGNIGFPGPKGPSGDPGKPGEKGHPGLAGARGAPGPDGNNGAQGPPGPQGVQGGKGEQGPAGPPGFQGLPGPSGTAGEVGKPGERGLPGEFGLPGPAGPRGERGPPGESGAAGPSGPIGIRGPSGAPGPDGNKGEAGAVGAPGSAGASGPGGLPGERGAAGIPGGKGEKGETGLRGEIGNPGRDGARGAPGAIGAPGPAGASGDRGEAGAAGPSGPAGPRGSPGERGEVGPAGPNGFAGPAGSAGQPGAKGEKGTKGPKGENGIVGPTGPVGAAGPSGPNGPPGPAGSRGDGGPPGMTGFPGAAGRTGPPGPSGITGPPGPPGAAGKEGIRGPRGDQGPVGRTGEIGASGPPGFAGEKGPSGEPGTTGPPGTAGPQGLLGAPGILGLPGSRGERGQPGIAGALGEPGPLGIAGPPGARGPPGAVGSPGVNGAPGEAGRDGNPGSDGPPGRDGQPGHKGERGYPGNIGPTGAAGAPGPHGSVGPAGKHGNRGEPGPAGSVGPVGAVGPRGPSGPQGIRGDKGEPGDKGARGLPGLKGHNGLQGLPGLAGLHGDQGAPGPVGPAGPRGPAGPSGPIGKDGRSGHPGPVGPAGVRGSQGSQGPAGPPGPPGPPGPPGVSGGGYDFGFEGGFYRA

Binder | Kd (murine 4-1BB [1]) [nM] | Kd (rat collagen I) [nM] | binding result (murine 4-1BB [2])
B1 | 5.08 | 25 | binds
B2 | 4.12 |  | binds
